Laboratory results as given in patent publication US20120172293A1 (Takeda / Millennium, published 2012).
Non-standard residues stand in square brackets, D forms with d. *: point of attachment. X4 = ((1S)-1-Carboxy-3-methylbutyl)carbamoyl, CC(C)C[C@H](NC(=O)*)C(=O)O; X10 = Tetrahydro‑2H‑pyran‑4‑yl‑carbamoyl, O=C(NC1CCOCC1)*; Imidazole4carbonyl = O=C(c1cnc[nH]1)*; Arg(Me) = CNC(=N)NCCC[C@H](N)C(=O)O; hArg = N=C(N)NCCCC[C@H](N)C(=O)O; tBuAla = CC(C)(C)C[C@H](N)C(=O)O; 4Pal = N[C@@H](Cc1ccncc1)C(=O)O; Cha = N[C@@H](CC1CCCCC1)C(=O)O; Isonicotinoyl = O=C(c1ccncc1)*; Iva = CC[C@](C)(N)C(=O)O; Nle = CCCC[C@H](N)C(=O)O; Aib = CC(C)(N)C(=O)O

Legend:
[1] = biological target: human Y2 receptor (human) (UniProt P49146); test: cell-based or functional assay
human Y2 receptor (human), sequence (P49146 whole entry): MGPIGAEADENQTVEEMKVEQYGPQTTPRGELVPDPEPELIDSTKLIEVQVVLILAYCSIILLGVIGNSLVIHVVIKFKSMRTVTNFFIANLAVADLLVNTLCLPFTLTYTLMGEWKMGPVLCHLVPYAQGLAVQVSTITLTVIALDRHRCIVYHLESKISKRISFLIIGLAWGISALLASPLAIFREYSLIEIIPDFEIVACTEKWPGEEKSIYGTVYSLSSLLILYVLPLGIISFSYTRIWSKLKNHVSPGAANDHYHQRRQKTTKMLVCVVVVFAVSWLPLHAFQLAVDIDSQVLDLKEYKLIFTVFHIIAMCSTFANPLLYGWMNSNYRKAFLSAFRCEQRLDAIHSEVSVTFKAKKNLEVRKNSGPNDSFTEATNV

[2] = biological target: human Y2 receptor (human) (UniProt P49146); test: RBA: displacement of [125I]-PYY from hY2R/CHO membranes

Binder	GBA EC50 Ratio ([35S]GTPγS binding) (EC50 compound/EC50 PYY(3-36)) [1]	IC50 Ratio (IC50 compound/IC50 PYY(3-36)) [2]
X4-E[dP]R[4Pal][Cha][Aib]NK[Aib]TRQR[Cha]-NH2 (SMILES CC(C)C[C@H](NC(=O)N[C@@H](CCC(=O)O)C(=O)N1CCC[C@@H]1C(=O)N[C@@H](CCCNC(=N)N)C(=O)N[C@@H](Cc1ccncc1)C(=O)N[C@@H](CC1CCCCC1)C(=O)NC(C)(C)C(=O)N[C@@H](CC(N)=O)C(=O)N[C@@H](CCCCN)C(=O)NC(C)(C)C(=O)N[C@H](C(=O)N[C@@H](CCCNC(=N)N)C(=O)N[C@@H](CCC(N)=O)C(=O)N[C@@H](CCCNC(=N)N)C(=O)N[C@@H](CC1CCCCC1)C(N)=O)[C@@H](C)O)C(=O)O)	2.5	2.2
Imidazole4carbonyl-S[dP][Nle][4Pal][Cha][Aib]NK[Aib]TRQR[Cha]-NH2 (SMILES CCCC[C@H](NC(=O)[C@H]1CCCN1C(=O)[C@H](CO)NC(=O)c1cnc[nH]1)C(=O)N[C@@H](Cc1ccncc1)C(=O)N[C@@H](CC1CCCCC1)C(=O)NC(C)(C)C(=O)N[C@@H](CC(N)=O)C(=O)N[C@@H](CCCCN)C(=O)NC(C)(C)C(=O)N[C@H](C(=O)N[C@@H](CCCNC(=N)N)C(=O)N[C@@H](CCC(N)=O)C(=O)N[C@@H](CCCNC(=N)N)C(=O)N[C@@H](CC1CCCCC1)C(N)=O)[C@@H](C)O) [4-Imidazolecarbonyl-[D-Pro24, Nle25, Pya(4)26, Cha27,36, Aib28,31, Lys30]-PYY(23-36)]	1.2	1.7
X10-E[dP]R[4Pal][Cha][Aib]NK[Aib]TRQR[Cha]-NH2 (SMILES C[C@@H](O)[C@H](NC(=O)C(C)(C)NC(=O)[C@H](CCCCN)NC(=O)[C@H](CC(N)=O)NC(=O)C(C)(C)NC(=O)[C@H](CC1CCCCC1)NC(=O)[C@H](Cc1ccncc1)NC(=O)[C@H](CCCNC(=N)N)NC(=O)[C@H]1CCCN1C(=O)[C@H](CCC(=O)O)NC(=O)NC1CCOCC1)C(=O)N[C@@H](CCCNC(=N)N)C(=O)N[C@@H](CCC(N)=O)C(=O)N[C@@H](CCCNC(=N)N)C(=O)N[C@@H](CC1CCCCC1)C(N)=O) [Tetrahydro-2H-pyran-4-yl-carbamoyl-[Glu23, D-Pro24, Pya(4)26, Cha27,36, Aib28,31, Lys30]-PYY(23-36)]	1.6	1.1
Ac-KS[dP]R[4Pal][Cha][Aib]NK[Aib]TRQR[Cha]-NH2 (SMILES CC(=O)N[C@@H](CCCCN)C(=O)N[C@@H](CO)C(=O)N1CCC[C@@H]1C(=O)N[C@@H](CCCNC(=N)N)C(=O)N[C@@H](Cc1ccncc1)C(=O)N[C@@H](CC1CCCCC1)C(=O)NC(C)(C)C(=O)N[C@@H](CC(N)=O)C(=O)N[C@@H](CCCCN)C(=O)NC(C)(C)C(=O)N[C@H](C(=O)N[C@@H](CCCNC(=N)N)C(=O)N[C@@H](CCC(N)=O)C(=O)N[C@@H](CCCNC(=N)N)C(=O)N[C@@H](CC1CCCCC1)C(N)=O)[C@@H](C)O) [Ac-[Lys22,30, D-Pro24, Pya(4)26, Cha27,36, Aib28,31]-PYY(22-36)]	1	1.1
Ac-S[dP][Arg(Me)]H[Cha][Aib]NK[Aib]TRQR[Cha]-NH2 (SMILES CNC(=N)NCCC[C@H](NC(=O)[C@H]1CCCN1C(=O)[C@H](CO)NC(C)=O)C(=O)N[C@@H](Cc1c[nH]cn1)C(=O)N[C@@H](CC1CCCCC1)C(=O)NC(C)(C)C(=O)N[C@@H](CC(N)=O)C(=O)N[C@@H](CCCCN)C(=O)NC(C)(C)C(=O)N[C@H](C(=O)N[C@@H](CCCNC(=N)N)C(=O)N[C@@H](CCC(N)=O)C(=O)N[C@@H](CCCNC(=N)N)C(=O)N[C@@H](CC1CCCCC1)C(N)=O)[C@@H](C)O) [Ac-[D-Pro24, Arg(Me)25, Cha27,36, Aib28,31, Lys30]-PYY(23-36)]	1.8	1.8
Ac-LS[dP]R[4Pal][Cha][Aib]NK[Aib]TRQR[Cha]-NH2 (SMILES CC(=O)N[C@@H](CC(C)C)C(=O)N[C@@H](CO)C(=O)N1CCC[C@@H]1C(=O)N[C@@H](CCCNC(=N)N)C(=O)N[C@@H](Cc1ccncc1)C(=O)N[C@@H](CC1CCCCC1)C(=O)NC(C)(C)C(=O)N[C@@H](CC(N)=O)C(=O)N[C@@H](CCCCN)C(=O)NC(C)(C)C(=O)N[C@H](C(=O)N[C@@H](CCCNC(=N)N)C(=O)N[C@@H](CCC(N)=O)C(=O)N[C@@H](CCCNC(=N)N)C(=O)N[C@@H](CC1CCCCC1)C(N)=O)[C@@H](C)O) [Ac-[Leu22, D-Pro24, Pya(4)26, Cha27,36, Aib28,31, Lys30]-PYY(22-36)]	1	1.2
Ac-FS[dP]R[4Pal][Cha][Aib]NK[Aib]TRQR[Cha]-NH2 (SMILES CC(=O)N[C@@H](Cc1ccccc1)C(=O)N[C@@H](CO)C(=O)N1CCC[C@@H]1C(=O)N[C@@H](CCCNC(=N)N)C(=O)N[C@@H](Cc1ccncc1)C(=O)N[C@@H](CC1CCCCC1)C(=O)NC(C)(C)C(=O)N[C@@H](CC(N)=O)C(=O)N[C@@H](CCCCN)C(=O)NC(C)(C)C(=O)N[C@H](C(=O)N[C@@H](CCCNC(=N)N)C(=O)N[C@@H](CCC(N)=O)C(=O)N[C@@H](CCCNC(=N)N)C(=O)N[C@@H](CC1CCCCC1)C(N)=O)[C@@H](C)O) [Ac-[Phe22, D-Pro24, Pya(4)26, Cha27,36, Aib28,31, Lys30]-PYY(22-36)]	0.89	1.2
Imidazole4carbonyl-S[dP][Iva][4Pal][Cha][Aib]NK[Aib]TRQR[Cha]-NH2 (SMILES CC[C@](C)(NC(=O)[C@H]1CCCN1C(=O)[C@H](CO)NC(=O)c1cnc[nH]1)C(=O)N[C@@H](Cc1ccncc1)C(=O)N[C@@H](CC1CCCCC1)C(=O)NC(C)(C)C(=O)N[C@@H](CC(N)=O)C(=O)N[C@@H](CCCCN)C(=O)NC(C)(C)C(=O)N[C@H](C(=O)N[C@@H](CCCNC(=N)N)C(=O)N[C@@H](CCC(N)=O)C(=O)N[C@@H](CCCNC(=N)N)C(=O)N[C@@H](CC1CCCCC1)C(N)=O)[C@@H](C)O) [4-Imidazolecarbonyl-[D-Pro24, Iva25, Pya(4)26, Cha27,36, Aib28,31, Lys30]-PYY(23-36)]	0.91	0.77
Ac-S[dP][Iva][4Pal][Cha][tBuAla]NK[Aib]TRQR[Cha]-NH2 (SMILES CC[C@](C)(NC(=O)[C@H]1CCCN1C(=O)[C@H](CO)NC(C)=O)C(=O)N[C@@H](Cc1ccncc1)C(=O)N[C@@H](CC1CCCCC1)C(=O)N[C@@H](CC(C)(C)C)C(=O)N[C@@H](CC(N)=O)C(=O)N[C@@H](CCCCN)C(=O)NC(C)(C)C(=O)N[C@H](C(=O)N[C@@H](CCCNC(=N)N)C(=O)N[C@@H](CCC(N)=O)C(=O)N[C@@H](CCCNC(=N)N)C(=O)N[C@@H](CC1CCCCC1)C(N)=O)[C@@H](C)O) [Ac-[D-Pro24, Iva25, Pya(4)26, Cha27,36, Leu(Me)28, Lys30, Aib31]-PYY(23-36)]	1.2	0.76
Ac-S[dP]K(Ac)[4Pal][Cha][Aib]NK[Aib]TRQR[Cha]-NH2 (SMILES CC(=O)NCCCC[C@H](NC(=O)[C@H]1CCCN1C(=O)[C@H](CO)NC(C)=O)C(=O)N[C@@H](Cc1ccncc1)C(=O)N[C@@H](CC1CCCCC1)C(=O)NC(C)(C)C(=O)N[C@@H](CC(N)=O)C(=O)N[C@@H](CCCCN)C(=O)NC(C)(C)C(=O)N[C@H](C(=O)N[C@@H](CCCNC(=N)N)C(=O)N[C@@H](CCC(N)=O)C(=O)N[C@@H](CCCNC(=N)N)C(=O)N[C@@H](CC1CCCCC1)C(N)=O)[C@@H](C)O) [Ac-[D-Pro24, Lys(Ac)25, Pya(4)26, Cha27,36, Aib28,31, Lys30]-PYY(23-36)]	4.2	6.6
Ac-S[dP][Iva][4Pal][Cha][Iva]NK[Aib]TRQR[Cha]-NH2 (SMILES CC[C@](C)(NC(=O)[C@H](CC1CCCCC1)NC(=O)[C@H](Cc1ccncc1)NC(=O)[C@](C)(CC)NC(=O)[C@H]1CCCN1C(=O)[C@H](CO)NC(C)=O)C(=O)N[C@@H](CC(N)=O)C(=O)N[C@@H](CCCCN)C(=O)NC(C)(C)C(=O)N[C@H](C(=O)N[C@@H](CCCNC(=N)N)C(=O)N[C@@H](CCC(N)=O)C(=O)N[C@@H](CCCNC(=N)N)C(=O)N[C@@H](CC1CCCCC1)C(N)=O)[C@@H](C)O) [Ac-[D-Pro24, Iva25,28, Pya(4)26, Cha27,36, Lys30, Aib31]-PYY(23-36)]	1	1.1
Ac-S[dP][hArg]H[Cha][Aib]NK[Aib]TRQR[Cha]-NH2 (SMILES CC(=O)N[C@@H](CO)C(=O)N1CCC[C@@H]1C(=O)N[C@@H](CCCCNC(=N)N)C(=O)N[C@@H](Cc1c[nH]cn1)C(=O)N[C@@H](CC1CCCCC1)C(=O)NC(C)(C)C(=O)N[C@@H](CC(N)=O)C(=O)N[C@@H](CCCCN)C(=O)NC(C)(C)C(=O)N[C@H](C(=O)N[C@@H](CCCNC(=N)N)C(=O)N[C@@H](CCC(N)=O)C(=O)N[C@@H](CCCNC(=N)N)C(=O)N[C@@H](CC1CCCCC1)C(N)=O)[C@@H](C)O) [Ac-[D-Pro24, Har25, Cha27,36, Aib28,31, Lys30]-PYY(23-36)]	2.7	1.2
Isonicotinoyl-S[dP][Iva][4Pal][Cha][Aib]NK[Aib]TRQR[Cha]-NH2 (SMILES CC[C@](C)(NC(=O)[C@H]1CCCN1C(=O)[C@H](CO)NC(=O)c1ccncc1)C(=O)N[C@@H](Cc1ccncc1)C(=O)N[C@@H](CC1CCCCC1)C(=O)NC(C)(C)C(=O)N[C@@H](CC(N)=O)C(=O)N[C@@H](CCCCN)C(=O)NC(C)(C)C(=O)N[C@H](C(=O)N[C@@H](CCCNC(=N)N)C(=O)N[C@@H](CCC(N)=O)C(=O)N[C@@H](CCCNC(=N)N)C(=O)N[C@@H](CC1CCCCC1)C(N)=O)[C@@H](C)O) [4-Pyridinecarbonyl-[D-Pro24, Iva25, Pya(4)26, Cha27,36, Aib28,31, Lys30]-PYY(23-36)]	1.1	1
X4-Q[dP]R[4Pal][Cha][Aib]NK[Aib]TRQR[Cha]-NH2 (not fully specified; printed as [(1S)-1-Carboxy-3-methylbutyl]carbamoyl-[Gln23, D-Pro24, Pya(4)26, Cha27,36, Aib28,31, Lys30]-PYY(23-36))	1.3	0.93
